Substitutions are numbered along the chain they refer to.

Data on two molecules can be found in US20140113288, “METHODS OF IDENTIFYING RISK OF PREECLAMPSIA AND PREGNANCY-RELATED DISORDERS” (Academia Sinica, published 2014).

Series [1] concerns the target T1, GCM1 (GCMa) (Homo sapiens, UniProt Q9NP62 Q9NP62:1-436).
T1 sequence: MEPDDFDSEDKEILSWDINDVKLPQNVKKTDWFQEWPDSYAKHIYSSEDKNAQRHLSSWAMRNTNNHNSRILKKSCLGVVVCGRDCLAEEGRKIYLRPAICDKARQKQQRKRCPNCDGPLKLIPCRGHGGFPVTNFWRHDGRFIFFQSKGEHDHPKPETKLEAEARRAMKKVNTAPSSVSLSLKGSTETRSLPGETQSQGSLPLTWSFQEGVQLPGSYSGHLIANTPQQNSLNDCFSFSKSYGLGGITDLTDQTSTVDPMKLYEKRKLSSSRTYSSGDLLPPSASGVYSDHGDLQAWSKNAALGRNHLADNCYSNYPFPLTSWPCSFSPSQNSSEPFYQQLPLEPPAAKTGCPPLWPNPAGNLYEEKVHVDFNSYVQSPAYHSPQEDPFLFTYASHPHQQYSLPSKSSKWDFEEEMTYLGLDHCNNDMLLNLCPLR
Nature of the series: EMSA; supershifted by anti-GCM1 antibody; 5% non-denaturing gel. Conditions: tags: C-terminal FLAG (GCM1-FLAG); label: radiolabel. The procedure: (§1) BeWo cells stably expressing HA-GCM1 (BeWo31) (36) were treated with or without 50 μM forskolin for 24 hours before being subjected to ChIP assay using normal mouse serum or HA mAb (Sigma, St. Louis, Mo.). The immunopurified genomic fragments were amplified by ligation-mediated PCR and the resulting amplicons were fragmented and labeled with terminal labeling kit (Affymetrix, Santa Clara, Calif.) according to the manufacturer's instructions. The chips of Human promoter 1.0R array (Affymetrix) were hybridized with the labeled amplicons, followed by data analysis using the Partek software package (St. Louis, Mo.). Furthermore, RefSeq mapping data were collected from the UCSC Genome Browser's RefFlat table (The UCSC genome browser database: update 2007). The closest RefSeq 5′ end for each ChIP region was identified, regardless of whether the cluster was upstream or downstream of the 5′ end. The primer sequences for ChIP analysis of the interaction between GCM1 and HtrA4-GBS in BeWo cells are 5′-[…]-3′ (SEQ ID NO:4) and 5′-GTCTCTAGCC CTACCCG-3′ (SEQ ID NO:5). On the other hand, analysis of direct interaction between GCM1 and HtrA4-GBS was performed by electrophoretic mobility shift assay (EMSA) as previously described (22). […] The reaction mixtures were analyzed by electrophoresis on 5% non-denaturing polyacrylamide gels. […]

Series [2] concerns the target T1, GCM1 (GCMa). In words: EMSA; GBS mutated. As to conditions: tags: C-terminal FLAG (GCM1-FLAG); label: radiolabel. The procedure:
as §1

B1: HtrA4-GBS probe (dsDNA)
DNA 1: GTGAGCTTTCTTATCAGTCTGCCCTCATTGTCGGTTTT
DNA 2: AAAACCGACAATGAGGGCAGACTGATAAGAAAGCTCAC
Regarding B1, the binding result in the series with GCM1 (GCMa) [1] is on record as “binds”.

B2: HtrA4-GBSmt probe (dsDNA)
DNA 1: B1 DNA 1 with C22A, C23A, C26A, A27C
DNA 2: B1 DNA 2 with T12G, G13T, G16T, G17T
As to B2, the binding result with GCM1 (GCMa) [2] is “no binding”.
